For orientation: Kd means the equilibrium constant for the complex coming apart. A lower Kd goes with tighter binding.

The target in assay [1] is T1, human CD73 on cells (H322, MDA-MB-231, HT-144, T cells, CD73-transfected HEK293T) (human, UniProt P21589 27-549).
T1 sequence (looked up): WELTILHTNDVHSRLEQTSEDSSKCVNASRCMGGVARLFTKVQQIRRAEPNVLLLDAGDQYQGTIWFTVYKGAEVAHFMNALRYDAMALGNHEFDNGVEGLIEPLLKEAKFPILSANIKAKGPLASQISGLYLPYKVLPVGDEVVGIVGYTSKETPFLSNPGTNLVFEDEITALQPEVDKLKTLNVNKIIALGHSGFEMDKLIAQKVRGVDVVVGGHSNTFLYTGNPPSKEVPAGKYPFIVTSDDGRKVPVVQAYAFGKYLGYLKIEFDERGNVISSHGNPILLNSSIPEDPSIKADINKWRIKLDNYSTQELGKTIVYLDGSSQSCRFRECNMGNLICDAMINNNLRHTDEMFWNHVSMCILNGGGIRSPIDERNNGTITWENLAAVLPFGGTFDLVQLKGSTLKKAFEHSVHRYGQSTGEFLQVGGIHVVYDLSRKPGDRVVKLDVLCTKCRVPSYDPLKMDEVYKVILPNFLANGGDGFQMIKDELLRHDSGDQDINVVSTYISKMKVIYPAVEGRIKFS
The assay can be described thus: cell-based or functional assay.

Assay [2] has as its target T2, human CD73 antigen (Biacore analyte) (human, UniProt P21589 27-547, limits assumed).
T2 sequence (looked up): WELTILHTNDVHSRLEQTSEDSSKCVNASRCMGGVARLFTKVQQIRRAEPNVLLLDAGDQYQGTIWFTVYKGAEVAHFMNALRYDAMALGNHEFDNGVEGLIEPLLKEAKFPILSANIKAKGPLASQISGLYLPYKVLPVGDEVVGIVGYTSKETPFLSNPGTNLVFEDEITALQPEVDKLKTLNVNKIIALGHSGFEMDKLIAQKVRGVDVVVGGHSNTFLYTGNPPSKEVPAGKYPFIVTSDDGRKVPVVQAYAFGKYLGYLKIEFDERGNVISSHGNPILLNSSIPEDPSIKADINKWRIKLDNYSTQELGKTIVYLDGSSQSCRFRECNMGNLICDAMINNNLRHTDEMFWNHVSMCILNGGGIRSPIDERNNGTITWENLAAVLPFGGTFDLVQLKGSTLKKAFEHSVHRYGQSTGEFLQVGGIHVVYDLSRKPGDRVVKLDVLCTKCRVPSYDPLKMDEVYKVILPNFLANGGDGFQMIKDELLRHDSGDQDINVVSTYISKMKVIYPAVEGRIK
The experiment in a line: SPR, Biacore 8K, antibody captured on CM5 chip, CD73 as analyte, multicycle kinetics, 1:1 model. Background: SPR reads the build-up and loss of mass on a sensor chip optically.

The target in assay [3] is T3, cynomolgus CD73 (Biacore analyte) (cynomolgus, UniProt A0A2K5V5U7 27-547).
T3 sequence: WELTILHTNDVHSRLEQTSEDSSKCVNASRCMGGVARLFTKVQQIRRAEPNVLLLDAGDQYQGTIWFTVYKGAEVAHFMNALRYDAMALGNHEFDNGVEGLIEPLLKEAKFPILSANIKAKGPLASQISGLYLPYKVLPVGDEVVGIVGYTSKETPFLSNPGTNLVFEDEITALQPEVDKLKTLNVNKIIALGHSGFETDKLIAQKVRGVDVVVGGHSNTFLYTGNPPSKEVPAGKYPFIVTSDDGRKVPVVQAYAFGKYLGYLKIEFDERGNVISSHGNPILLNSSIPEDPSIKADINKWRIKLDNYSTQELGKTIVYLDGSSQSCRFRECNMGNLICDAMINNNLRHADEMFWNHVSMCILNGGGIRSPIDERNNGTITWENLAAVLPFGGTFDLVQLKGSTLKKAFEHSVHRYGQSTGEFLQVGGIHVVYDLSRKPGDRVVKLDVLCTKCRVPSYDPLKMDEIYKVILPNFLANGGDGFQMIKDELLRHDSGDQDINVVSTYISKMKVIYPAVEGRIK
Described as above.

Assay [4] has as its target T1, human CD73 on cells (H322, MDA-MB-231, …). The assay can be described thus: flow cytometry on H322 cells (endogenous CD73), fluorescently labeled secondary antibody, PE channel. Background: A flow cytometer gives signals particle by particle.
For assay [5] the target is unchanged. The assay can be described thus: flow cytometry on MDA-MB-231 cells (endogenous CD73), fluorescently labeled secondary antibody, PE channel.
The target is the same in assay [6]. The assay can be described thus: cell-based or functional assay. This is another data set of the same source.
For assay [7] the target is unchanged. The assay can be described thus: cell-based or functional assay. This is another data set of the same source.

Where two headings read alike, the source gives them in different places.

B1: 002_m antibody (antibody, V domains shown)
VH: QVQMKQSGPELVKPGASVKIPCKASGYTFTDCNMDWVKQSHGESLEWIGDINPNNGGTIYNQKFKGKVTLTIDKSSSTAYMELRSLTSEDTAVYYCARTNWDYAMDYWGQGTSVTVSS
VL: DIQMTQSPSSMYASLGERVTITCKASQDINSNLSWFQQKPGKSPKTLIYRANRLIDGVPSRFSGSGSGQDYSLTISSLEYEDMGIYYCLQYDVFPRTFGGGTKLELK
With B1, the “IC50 of AMP degradation suppressive function, H322 cells” value in assay [1] stood at 0.089 µg/mL.

B2: 006_hKB antibody (antibody, V domains shown)
VH: QVQLLQSGAEVKKPGESVKISCKASGYTFTSYWMHWVKQRPGQGLEWIGEINPSNARTNYNENFKSRFTITVDKSTSTAYMQFSRLRSDDTAVYYCARRGTSGNYFDFWGQGTMLTVSS
VL: DIQMTQSPSSLSASLGQRVTITCKASQDINTYLSWFQQKPGKPPKTLIYRANRLVDGVPSRFSGSGSGEDYSLTISSLQSEDFGVYYCLQYDEFPYTFGPGTRLEIK
notes: Humanized antibody based on 006_m
Consider B2, for which the Kd came to 0.426 nM in assay [2] and 0.457 nM in assay [3].

B3: 005_m antibody (antibody, V domains shown)
VH: DVQLVESGPGLVAPSQSLSITCTVSGFSLTSYGVSWVRQPPGKGLEWLGVIWGDGSTNYHSALISRLSISKDNSKSQVFLKLNSLQTDDTATYYCAKTNIFYDYDWYLDVWGAGTTVTVSS
VL: DIVMTQAPLSLPVSLGDQASISCRSSQSLVHSNGNTYLHWYLQKPGQSPKLLIYKVSNRFSGVPDRFSGSGSGTDFTLKISRVEAEDLGVYFCSHSTHVPWTFGGGTKLELK
notes: Mouse antibody expressed recombinantly in CHO cells
For B3, the binding result in assay [4] is listed as “binds”.

B4: 009_m antibody (antibody, V domains shown)
VH: QVQLQQSGAELVRPGASVKLSCKASGYTFTSYWMNWVKQRPEPGLEWIGRIDPYDSEAHYNQKFKDKAILTVDKSSSTAYMQLSSLTSEDSAVYYCTRIRYGTFDYWGQGTTLTVSS
VL: DIVLTQSPSSMYASLGERVTITCKASQDINSYLSWFQQKPGKSPKTLIYRSNSLVDGVPSRFSGSGSGQDYSLTISSLEYEDMGSYYCLQYDEFPYTFGGGTRLEIKR
notes: as for B3
In the case of B4, the binding result in assay [5] was “binds”.

B5: 002_6_h4 antibody (antibody, V domains shown)
VH: QVQMKQSAAEVRKPGASVKVSCKASGYTFTDSNMDWVRQAPGQGLEWMGDINPNNGGTIYNQKFKGRVTMTIDTSRSTAYMELRSLRSDDTAVYYCARTNWDYAMDYWGQGTTVTVSS
VL: DIQMTQSPSFLSASVGDRVTITCKASQDINSQLSWYQQKPGKAPKTLIYRANRLIDGVPSRFSGSGSGTDFTLTISSLQYEDMATYYCLQYDVFPRTFGGGTKLEIK
notes: Humanized antibody of 002_6_c; also called humanized anti-CD73 antibody 002_6_h4; lead antibody
For the molecule B5, the “IC50 of AMP degradation suppressive function, H322 cells” value in assay [6] was found to be 0.069 µg/mL. For the same molecule, the “IC50 of AMP degradation suppressive function, MDA-MB-231 cells” value in assay [7] amounted to 0.032 µg/mL. The Kd was determined as 0.204 nM in assay [2] and 0.273 nM in assay [3].

For the origin of these results see patent publication US20230220104A1 (BRIGHTPATH BIOTHERAPEUTICS, published 2023).
